To fix the notation:
B1: Mineralocorticoid receptor, residues 600 to 675; numbered along this chain, P08235 (parent)
chain: SKICLVCGDEASGCHYGVVTCGSCKVFFKRAVEGQHNYLCAGRNDCIIDKIRRKNCPACRLQKCLQAGMNLGARKS

± gives the uncertainty stated by the source.

For 36 variants, abundance fitness results are on record in the Human Domainome abundance scans (Beltran et al. 2025).

This data set covers variants of B1. Put plainly: abundance fitness (aPCA) (normalised: wild type 0, dead -1); higher = more abundant; growth selection in yeast, the domain comes from the species named. To be noted: Homo sapiens.
Take SKICLVCGDEASGCHYGVVTCGSCKVFFKRAVEGQHNYLCAGRNDCIIDKIRRFNCPACRLQKCLQAGMNLGARKS [K54F]: the abundance fitness was found to be 0 ± 0.05.

Regarding SKICLVCGDEASGCHYGVVTCGSCKVFFKRAVEGQHNYLCAGRNDCIIDKIRRANCPACRLQKCLQAGMNLGARKS [K54A], the abundance fitness was -0.039 ± 0.049. The figure for SKICLVCGDEASGCHYGVVTCGSCKVFFKRAVEGQHNYLCAGRNDCIIDKIRRDNCPACRLQKCLQAGMNLGARKS [K54D] is -0.031 ± 0.056; for SKICLVCGDEASGCHYGVVTCGSCKVFFKRAVEGQHNYLCAGRNDCIIDKIRRINCPACRLQKCLQAGMNLGARKS [K54I] it is -0.018 ± 0.04; for SKICLVCGDEASGCHYGVVTCGSCKVFFKRAVEGQHNYLCAGRNDCIIDKIRRENCPACRLQKCLQAGMNLGARKS [K54E] it is -0.046 ± 0.092. In the case of SKICLVCGDEASGCHYGVVTCGSCKVFFKRAVEGQHNYLCAGRNDCIIDKIRRHNCPACRLQKCLQAGMNLGARKS [K54H], the abundance fitness is -0.118 ± 0.044. Regarding SKICLVCGDEASGCHYGVVTCGSCKVFFKRAVEGQHNYLCAGRNDCIIDKIRRGNCPACRLQKCLQAGMNLGARKS [K54G], the abundance fitness is -0.059 ± 0.05. The figure for SKICLVCGDEASGCHYGVVTCGSCKVFFKRAVEGQHNYLCAGRNDCIIDKVRRKNCPACRLQKCLQAGMNLGARKS [I51V] is 0.085 ± 0.055; for SKICLVCGDEASGCHYGVVTCGSCKVFFKRAVEGQHNYLCAGRNDCIIDKFRRKNCPACRLQKCLQAGMNLGARKS [I51F] it is -0.076 ± 0.077; for SKICLVCGDEASGCHYGVVTCGSCKVFFKRAVEGQHNYLCAGRNDCIIDKMRRKNCPACRLQKCLQAGMNLGARKS [I51M] it is 0.024 ± 0.11.

As to SKICLVCGDEASGCHYGVVTCGSCKVFFKRAVEGQHNYLCAGRNDCIIDKPRRKNCPACRLQKCLQAGMNLGARKS [I51P], the abundance fitness is -0.137 ± 0.066.

For the variant SKICLVCGDEASGCHYGVVTCGSCKVFFKRAVEGQHNYLCAGRNDCIIDKRRRKNCPACRLQKCLQAGMNLGARKS [I51R], the abundance fitness is -0.018 ± 0.042.

On to SKICLVCGDEASGCHYGVVTCGSCKVFFKRAVEGQHNYLCAGRNDCIIDKDRRKNCPACRLQKCLQAGMNLGARKS [I51D], for which the abundance fitness was -0.083 ± 0.1. Turning to SKICLVCGDEASGCHYGVVTCGSCKVFFKRAVEGQHNYLCAGRNDCIIDKARRKNCPACRLQKCLQAGMNLGARKS [I51A], the abundance fitness was -0.018 ± 0.048. Consider SKICLVCGDEASGCHYGVVTCGSCKVFFKRAVEGQHNYLCAGRNDCIIDKGRRKNCPACRLQKCLQAGMNLGARKS [I51G], for which the abundance fitness was -0.016 ± 0.043. As for SKICLVCGDEASGCHYGVVTCGSCKVFFKRAVEGQHNYLCAGRNDCIIDKSRRKNCPACRLQKCLQAGMNLGARKS [I51S], the abundance fitness amounted to 0.003 ± 0.042. The figure for SKICLVCGDEASGCHYGVVTCGSCKVFFKRAVEGQHNYLCAGRNDCIIDKERRKNCPACRLQKCLQAGMNLGARKS [I51E] is -0.048 ± 0.057; for SKICLVCGDEASGCHYGVVTCGSCKVFFKRAVEGQHNYLCAGRNDCIIDKHRRKNCPACRLQKCLQAGMNLGARKS [I51H] it is 0.062 ± 0.092.

For SKICLVCGDEASGCHYGVVTCGSCKVFFKRAVEGQHNYLCAGRNDCIIDKYRRKNCPACRLQKCLQAGMNLGARKS [I51Y], the abundance fitness was found to be 0.048 ± 0.088.

On to SKICLVCGDEASGCHYGVVTCGSCKVFFKRAVEGQHNYLCAGRNDCIIDKKRRKNCPACRLQKCLQAGMNLGARKS [I51K], for which the abundance fitness was -0.093 ± 0.051. For the variant SKICLVCGDEASGCHYGVVTCGSCKVFFKRAVEGQHNYLCAGRNDCIIDKWRRKNCPACRLQKCLQAGMNLGARKS [I51W], the abundance fitness was -0.164 ± 0.066. As for SKICLVCGDEASGCHYGVVTCGSCKVFFKRAVEGQHNYLCAGRNDCIIDKCRRKNCPACRLQKCLQAGMNLGARKS [I51C], the abundance fitness was -0.051 ± 0.073. Next, SKICLVCGDEASGCHYGVVTCGSCKVFFKRAVEGQHNYLCAGRNDCIIDKQRRKNCPACRLQKCLQAGMNLGARKS [I51Q]: 0.095 ± 0.076; SKICLVCGDEASGCHYGVVTCGSCKVFFKRAVEGQHNYLCAGRNDCIIDKLRRKNCPACRLQKCLQAGMNLGARKS [I51L]: 0.018 ± 0.056; SKICLVCGDEASGCHYGVVTCGSCKVFFKRAVEGQHNYLCAGRNDCIIDKNRRKNCPACRLQKCLQAGMNLGARKS [I51N]: -0.108 ± 0.068. With SKICLVCGDEASGCHYGVVTCGSCKVFFKRAVEGQHNYLCAGRNDCIIDKIRIKNCPACRLQKCLQAGMNLGARKS [R53I], the abundance fitness is -0.098 ± 0.14.

Turning to SKICLVCGDEASGCHYGVVTCGSCKVFFKRAVEGQHNYLCAGRNDCIIDKIRYKNCPACRLQKCLQAGMNLGARKS [R53Y], the abundance fitness is -0.261 ± 0.28.

For SKICLVCGDEASGCHYGVVTCGSCKVFFKRAVEGQHNYLCAGRNDCIIDKIRQKNCPACRLQKCLQAGMNLGARKS [R53Q], the abundance fitness is -0.058 ± 0.068. As to SKICLVCGDEASGCHYGVVTCGSCKVFFKRAVEGQHNYLCAGRNDCIIDKIRPKNCPACRLQKCLQAGMNLGARKS [R53P], the abundance fitness is -0.056 ± 0.058.

Consider SKICLVCGDEASGCHYGVVTCGSCKVFFKRAVEGQHNYLCAGRNDCIIDKIRMKNCPACRLQKCLQAGMNLGARKS [R53M], for which the abundance fitness is -0.167 ± 0.09. Next, SKICLVCGDEASGCHYGVVTCGSCKVFFKRAVEGQHNYLCAGRNDCIIDKIRKKNCPACRLQKCLQAGMNLGARKS [R53K]: -0.078 ± 0.07; SKICLVCGDEASGCHYGVVTCGSCKVFFKRAVEGQHNYLCAGRNDCIIDKIRCKNCPACRLQKCLQAGMNLGARKS [R53C]: -0.159 ± 0.15; SKICLVCGDEASGCHYGVVTCGSCKVFFKRAVEGQHNYLCAGRNDCIIDKIRTKNCPACRLQKCLQAGMNLGARKS [R53T]: -0.042 ± 0.07. Next, SKICLVCGDEASGCHYGVVTCGSCKVFFKRAVEGQHNYLCAGRNDCIIDKIRVKNCPACRLQKCLQAGMNLGARKS [R53V]: 0.025 ± 0.073; SKICLVCGDEASGCHYGVVTCGSCKVFFKRAVEGQHNYLCAGRNDCIIDKIRSKNCPACRLQKCLQAGMNLGARKS [R53S]: -0.095 ± 0.057; SKICLVCGDEASGCHYGVVTCGSCKVFFKRAVEGQHNYLCAGRNDCIIDKIRFKNCPACRLQKCLQAGMNLGARKS [R53F]: -0.056 ± 0.19.
